Test results as given in paper PMC7674511, “The Chaperone BAG6 Regulates Cellular Homeostasis between Autophagy and Apoptosis by Holding LC3B” (iScience, 2020).
No end group written: not given here.

Molecular target: LC3B-I (UniProt Q9GZQ8 1-120)
Assay: fluorescence polarisation; fluorescence anisotropy; peptide at 1 μM, LC3B-I or Pro-LC3B added from 0 to 50 μM; Kd by nonlinear curve fitting; three independent experiments
Settings: both partners purified

B1: BAG6 LIR1 peptide (residues 124-143) (peptide)
peptide: VHDRNANSYVMVGTFNLPSD
modifications: also: FITC label, position not given here
notes: BAG6, 20-aa peptide encompassing the LIR1 motif (132-135 YVMV), residues 124-143; it has the same name there; also called wild-type BAG6 LIR-1 peptide; source: synthetic peptide
How did the Kd turn out when B1 was run?
Its Kd is 22.2 µM.
